Patent US20220282217A1 (BIONTECH US, published 2022)

Columns and labels:
HLA-A03.01 = molecular target: T1, HLA-A03.01 (human); assay: competition with radiolabeled reference peptide, purified MHC I
T1 construct: Purified class I MHC
Description: (§1) Peptides were incubated at varying concentrations with these complexes for 2 days, and the amount of remaining radiolabeled peptide bound to […] was measured using size exclusion gel-filtration.

[1] = molecular target: T2, HLA class I molecule A02.01; assay: pMHC-I dissociation half-life, 125I-b2m
T2 construct: Purified MHC class I complex; also called HLA-A02:01
Description: Briefly, synthetic genes encoding biotinylated MHC-I heavy and light chains are expressed in E. coli and purified from inclusion bodies using standard methods. […] These reactions are carried out in streptavidin coated microplates to bind the biotinylated MHC-I heavy chains to the surface and allow measurement of radiolabeled light chain to monitor complex formation. Dissociation is initiated by addition of higher concentrations of unlabeled light-chain and incubation at 37° C. Stability is defined as the length of time in hours it takes for half of the complexes to dissociate, as measured by scintillation counts.

[2] = molecular target: T2, HLA class I molecule A02.01; assay: competition with radiolabeled reference peptide on purified MHC I
Description: as §1

HLA-A02.01 = molecular target: T3, HLA-A02.01 (human); assay: competition with radiolabeled reference peptide, purified MHC I
T3 construct: Purified class I MHC
Description: as §1

| Binder | IC50 (HLA-A03.01) [nM] | Stability (T1/2 (h)) [1] [h] | IC50 [2] [nM] | IC50 (HLA-A02.01) [nM] |
| --- | --- | --- | --- | --- |
| KSKKKETFKK (also called SEC63 (+1)) | 39.6 | – | – | – |
| RKISNWSLKK (also called SMAP1(-1)) | 131 | – | – | – |
| VIIEYCCYG (also called KIT, T670I) | – | 0.5 | 191 | – |
| KLMLLRLNLR (also called SEC31A(-1)) | 48.4 | – | – | – |
| KSRQNHLQLK (also called SMAP1(-1)) | 4.7 | – | – | – |
| FVQGKDWGL (also called SPOP, F133L) | – | – | – | 34 |
| KKLMLLRLNL (also called SEC31A(-1)) | – | – | – | 289 |
| IMSLWGLVS (also called NAB: STAT6 (variant 1 of Chmielecki et al.)) | – | 0 | 7320 | – |
| TYTCAITTVK (also called SEC63 (+1)) | 2360 | – | – | – |
| VMSDTTYKI (also called TTK(-1)) | – | – | – | 19.6 |
| MLLRLNLRK (also called SEC31A(-1)) | 1.3 | – | – | – |
| FQNGKMALS (also called FRG1B, L52S) | – | 0 | 3280 | – |
| WSLKKVPALK (also called SMAP1(-1)) | 94.9 | – | – | – |
| LVRLSSCVPV (also called TGFBR2(-1)) | – | – | – | 1240 |
| VMAYVMAGV (also called HER2, G776insYVMA) | – | 16.5 | 2 | – |
| TIGGPTLVII (also called KIT, T670I) | – | 0 | 10700 | – |
| IIEYCCYGDL (also called KIT, T670I) | – | 0 | 7310 | – |
| IIEYCFYGDL (also called PDGFRa, T674I) | – | 0 | 1090 | – |
| QTGVMICAYL (also called PTEN, R130Q) | – | 0 | 9760 | – |
| LMLLRLNLRK (also called SEC31A(-1)) | 6 | – | – | – |
| IANLLGACTI (also called KIT, V654A) | – | 0 | 6420 | – |
| YIIIEYCFYG (also called PDGFRa, T674I) | – | 0 | 113 | – |
| AFSGEYIPTV (also called RAC1, P29S) | – | 0 | 781 | – |
| YLGNHMNIAN (also called KIT, V654A) | – | 0 | 1340 | – |
| YLTKWPKFFL (also called XPOT(-1)) | – | – | – | 42.9 |

| Binder | IC50 (HLA-A03.01) [nM] | Stability (T1/2 (h)) [1] [h] | IC50 [2] [nM] | IC50 (HLA-A02.01) [nM] |
| --- | --- | --- | --- | --- |
| SLYIVGFYGA (also called MEK, P124L) | – | 0.4 | 390 | – |
| LQEFDVQEAL (also called NDRG1: ERG) | – | 0 | 50300 | – |
| RLSSCVPVAL (also called TGFBR2(-1)) | – | – | – | 54.2 |
| LLSTPPLSPS (also called MYC, P57S) | – | 0 | 1770 | – |
| IIIEYCFYG (also called PDGFRa, T674I) | – | 1.2 | 16 | – |
| ALSASNSCFI (also called FRG1B, L52S) | – | 0.8 | 226 | – |
| KITEQEKDFL (also called PIK3CA, E542K) | – | 0 | 1400 | – |
| SLVRLSSCV (also called TGFBR2(-1)) | – | – | – | 29.9 |
| SLYIVGFYG (also called MEK, P124L) | – | 0 | 1060 | – |
| KSKKKETFK (also called SEC63 (+1)) | 74.3 | – | – | – |
| HMNIANLLGA (also called KIT, V654A) | – | 0 | 430 | – |
| KISNWSLKKV (also called SMAP1(-1)) | 115 | – | – | – |
| FSGEYIPTV (also called RAC1, P29S) | – | 6.8 | 3 | – |
| QQQSDLQPPA (also called MYC, E39D) | – | 0 | 646 | – |
| FVMSDTTYKI (also called TTK(-1)) | – | – | – | 62.4 |
| FELLPIPPL (also called MYC, T58I) | – | 0 | 553 | – |
| ITTVKATETK (also called SEC63 (+1)) | 1250 | – | – | – |
| ALMSAMTTS (also called TGFBR2(-1)) | – | – | – | 139 |
| VRLSSCVPVA (also called TGFBR2(-1)) | – | – | – | 1210 |
| VLHESNSPYI (also called MEK, C121S) | – | 1.9 | 131 | – |
| MNIANLLGA (also called KIT, V654A) | – | 0.3 | 128 | – |
| FALCGFWQI (also called SLC35F5(-1)) | – | – | – | 0.4 |
| LLQEFDVQEA (also called NDRG1: ERG) | – | 2.5 | 45 | – |
| KSLVRLSSCV (also called TGFBR2(-1)) | – | – | – | 280 |
| QQSDLQPPA (also called MYC, E39D) | – | 0 | 70 | – |
